Measured values published in publication PMC3423979 (Nature chemical biology, 2012).
Where no end group is shown, it is not given here. [ ]: non-standard residue; d: D form. pY = N[C@@H](Cc1ccc(OP(=O)(O)O)cc1)C(=O)O

Columns and labels:
[1] = target: CrkL SH2 (residues 1–105) (human) (UniProt P46109); assay: ITC
[2] = target: full-length CrkL (residues 1–303) (human) (UniProt P46109); assay: ITC
[3] = target: full-length CrkL (residues 1–303) (human, UniProt P46109 1-303); assay: NMR titration
[4] = target: CrkL SH3^N (residues 120–188) (human, UniProt P46109 120-188); assay: ITC
[5] = target: phosphorylated (pTyr207) CrkL (human, UniProt P46109 1-303, phosphotyrosine at 207 (pTyr207)); assay: ITC
[6] = target: CrkL SH2 (residues 1–105) (human, UniProt P46109 1-105); assay: ITC
Sequence of CrkL SH2 (residues 1–105) (P46109 1-105): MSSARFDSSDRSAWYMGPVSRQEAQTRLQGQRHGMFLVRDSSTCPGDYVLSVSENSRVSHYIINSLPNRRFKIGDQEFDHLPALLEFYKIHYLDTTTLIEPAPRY

Sequence of CrkL SH2 (residues 1–105) (human) (P46109 1-105): as above
Sequence of CrkL SH3^N (residues 120–188) (P46109 120-188): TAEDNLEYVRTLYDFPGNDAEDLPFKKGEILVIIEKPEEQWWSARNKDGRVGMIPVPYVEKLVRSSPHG
Sequence of full-length CrkL (residues 1–303) (P46109 whole entry, the tested form may be a part): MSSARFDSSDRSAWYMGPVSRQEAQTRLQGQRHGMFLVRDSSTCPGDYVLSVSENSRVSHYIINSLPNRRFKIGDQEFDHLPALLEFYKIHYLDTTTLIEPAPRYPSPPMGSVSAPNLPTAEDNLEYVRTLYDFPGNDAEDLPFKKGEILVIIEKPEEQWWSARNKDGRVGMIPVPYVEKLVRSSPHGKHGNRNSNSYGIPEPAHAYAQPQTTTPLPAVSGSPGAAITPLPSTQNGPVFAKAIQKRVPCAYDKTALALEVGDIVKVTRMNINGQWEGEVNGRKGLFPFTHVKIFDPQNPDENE
Sequence of phosphorylated (pTyr207) CrkL (P46109 whole entry, the tested form may be a part): as above
Sequence of full-length CrkL (residues 1–303) (human) (P46109 whole entry, the tested form may be a part): as above

CrkL-pTyr207-peptide
Kd [1]: 7 µM | Kd [2]: 23 µM

B1: PPII-peptide (peptide)
peptide: YLQAPELPTKTRTS
binding result [3]: binds | binding result [4]: binds | binding result [5]: binds

B2: FGFR-pTyr-peptide (peptide)
peptide: AGVSE[pY]ELPEDPR
binding result [6]: binds
